Measured values reported in patent US20040259198.

System: recombinant human MAT II β subunit protein with N-terminal poly-His tag, expressed in E. coli from pQE-30 (Clone 5)

## recombinant human MAT II α2 subunit expressed in E. coli from the pQE-30 vector
  Km (L-Met): the cloned protein lowered the Km (L-Met) of the recombinant human MAT II α2 subunit from 80 µM to 34 µM
  Km for L-Met in the presence of the MAT II β subunit: another kinetic form with a Km for L-Met of 32-34 µM was also apparent, in each case
  Km of MAT for L-methionine: This association changed the kinetic properties of the enzyme and lowered the Km of MAT for L-methionine
